The target of assay [1] is HBV病毒 (HepAD38细胞上清制备的HBV病毒液). The experiment in a line: cell-based or functional assay.
Assay [2] concerns the target T1, HBs抗原 (GENBANK ACCESSION NO: P30019.1) (乙肝病毒 (hepatitis B virus), UniProt P30019 1-226).
T1 construct: Coating antigen of the ELISA (50 ng per well); also called 乙肝病毒小膜蛋白HBs; 乙肝表面抗原
Briefly: ELISA, HBs antigen coated at 50 ng per well, anti-human IgG-HRP, OD450.

T1 sequence (P30019 whole entry, one chain of several): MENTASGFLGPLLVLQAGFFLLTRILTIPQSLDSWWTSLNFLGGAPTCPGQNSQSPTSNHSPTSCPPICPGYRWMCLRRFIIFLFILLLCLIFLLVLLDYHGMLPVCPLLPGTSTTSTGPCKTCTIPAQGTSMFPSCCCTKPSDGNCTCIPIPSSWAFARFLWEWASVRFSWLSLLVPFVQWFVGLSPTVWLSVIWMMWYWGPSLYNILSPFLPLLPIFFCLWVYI

B1: 单克隆抗体B432 (antibody, V domains shown)
VH: VQLVQSGGGVVQPGGSLRLSCAASGFIFGDYAMYWVRQAPGKGLEWVSFIGADGATIYYADSVTGRFTISRDNSKNSLFLQMNSLRTEDTAFYYCAKEMGVRDRYYYYAIDVWGQGTTVTVSS
VL: EIVLTQSPGTLSLSPGERASLSCRASQSVGGYLAWYQQTPGQAPRLLIYHSSTRATGIPARFSGSGSGTDFTLTISRLEPEDFAVYYCQQRTKWPLTFGGGTKVEIKR
notes: also called B432抗体
For B1, in assay [1], the “HBV neutralisation on HepG2-NTCP cells, HBeAg in supernatant (IC50)” value came out at 0.025 mg/L. For the same molecule, in assay [2], the binding result is on record as “binds”.

The record behind these values is patent CN111234012A (UNIV TSINGHUA, dated 2020).
